Laboratory results as given in IntAct's records for PubMed 26297806.

B1: Progesterone-induced-blocking factor 1 (Homo sapiens), Q8WXW3 (parent)
chain: MSRKISKESKKVNISSSLESEDISLETTVPTDDISSSEEREGKVRITRQLIERKELLHNIQLLKIELSQKTMMIDNLKVDYLTKIEELEEKLNDALHQKQLLTLRLDNQLAFQQKDASKYQELMKQEMETILLRQKQLEETNLQLREKAGDVRRNLRDFELTEEQYIKLKAFPEDQLSIPEYVSVRFYELVNPLRKEICELQVKKNILAEELSTNKNQLKQLTETYEEDRKNYSEVQIRCQRLALELADTKQLIQQGDYRQENYDKVKSERDALEQEVIELRRKHEILEASHMIQTKERSELSKEVVTLEQTVTLLQKDKEYLNRQNMELSVRCAHEEDRLERLQAQLEESKKAREEMYEKYVASRDHYKTEYENKLHDELEQIRLKTNQEIDQLRNASREMYERENRNLREARDNAVAEKERAVMAEKDALEKHDQLLDRYRELQLSTESKVTEFLHQSKLKSFESERVQLLQEETARNLTQCQLECEKYQKKLEVLTKEFYSLQASSEKRITELQAQNSEHQARLDIYEKLEKELDEIIMQTAEIENEDEAERVLFSYGYGANVPTTAKRRLKQSVHLARRVLQLEKQNSLILKDLEHRKDQVTQLSQELDRANSLLNQTQQPYRYLIESVRQRDSKIDSLTESIAQLEKDVSNLNKEKSALLQTKNQMALDLEQLLNHREELAAMKQILVKMHSKHSENSLLLTKTEPKHVTENQKSKTLNVPKEHEDNIFTPKPTLFTKKEAPEWSKKQKMKT
partner: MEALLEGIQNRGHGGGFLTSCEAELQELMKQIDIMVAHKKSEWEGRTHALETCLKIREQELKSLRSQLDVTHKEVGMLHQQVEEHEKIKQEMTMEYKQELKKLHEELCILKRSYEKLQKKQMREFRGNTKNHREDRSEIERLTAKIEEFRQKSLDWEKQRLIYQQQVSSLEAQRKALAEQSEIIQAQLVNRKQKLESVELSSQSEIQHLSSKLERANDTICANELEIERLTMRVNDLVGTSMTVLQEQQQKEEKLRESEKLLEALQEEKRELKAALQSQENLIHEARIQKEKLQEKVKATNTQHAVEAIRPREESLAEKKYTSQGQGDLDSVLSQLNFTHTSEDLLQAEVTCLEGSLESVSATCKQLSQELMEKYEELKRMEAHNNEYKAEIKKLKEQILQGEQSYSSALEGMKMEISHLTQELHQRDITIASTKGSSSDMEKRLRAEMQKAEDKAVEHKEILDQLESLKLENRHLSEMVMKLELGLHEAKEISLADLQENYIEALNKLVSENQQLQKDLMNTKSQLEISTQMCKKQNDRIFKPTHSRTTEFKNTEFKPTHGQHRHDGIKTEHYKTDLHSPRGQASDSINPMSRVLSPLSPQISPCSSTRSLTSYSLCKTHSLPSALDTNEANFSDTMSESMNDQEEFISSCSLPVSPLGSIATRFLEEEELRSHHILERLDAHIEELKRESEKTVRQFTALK

Variants of: B1
Conditions: with cep63_human CEP63, Q96MT8

| Variant | effect of a mutation on the interaction |
| --- | --- |
| E89Q | disrupting interaction strength |
